The values that follow come from US11998613B2, “Antibody-drug conjugates containing an anti-mesothelin antibody and uses thereof” (DEVELOPMENT CENTER FOR BIOTECHNOLOGY, priority 2020, dated 2024).

Where two headings read alike, the source gives them in different places. Non-standard residues stand in square brackets, D forms with d. Residues, ends and D or L forms follow the SMILES beside them. *: point of attachment. Dolaproine = CO[C@@H]([C@@H]1CCCN1)[C@@H](C)C(=O)O; Dil = CC[C@H](C)[C@H](NC)[C@@H](CC(=O)O)OC; X1 = C[C@@H](N*)[C@@H](O)c1ccccc1; NMeV = CN[C@H](C(=O)O)C(C)C

Series [1] concerns Ovarian carcinoma cell line OVCAR-3 (MSLN+). Kind of series: In vitro cytotoxicity, CellTiter-Glo luminescent cell viability assay, OVCAR-3. Type of series: cell-based, human. The following applies: read-out: Relative IC50 (nM of toxic payload/ADCs). The procedure: (§1) The KLM-1 & OVCAR-3 cell lines were maintained in an atmosphere of 5% CO2 in a humidified 37° C. incubator. The day before treatment, cells were collected and seeded into 96-well plates (4,000 cells per well). On the second day, cells were treated with 3-fold serial dilution concentration of toxic payloads and ADCs. Each treatment was performed in eight triplicate data points. After the treatment of 72 hours, cell viability was assessed by CellTiter-Glo® kit (Promega) according to the manufacturer's instruction. At the end of the incubation, luminescence was measured using a SpectraMax i3x Multi Mode Detection Platform (Molecular Devices). Compound cytotoxicity was evaluated in comparison to cells treated with 0.05% PBS (ADCs) or 0.05% DMSO (toxic payload). IC50 values were calculated by fitting viability data with a four-parameter logistic equation using GraphPad prism 5.0 software.

The subject of series [2] is Pancreatic cancer cell line KLM-1 (MSLN+). Description: In vitro cytotoxicity, CellTiter-Glo luminescent cell viability assay, KLM-1. The conditions noted are these: KLM-1, 72 hours treatment; read-out: Relative IC50 (nM of toxic payload/ADCs). Type of series: cell-based, human. The protocol: as §1, with “Pancreatic cancer cell line KLM-1 was respectively grown in RPMI 1640 Medium (ATCC modification) medium supplemented with 10% fetal bovine serum. Ovarian carcinoma cell line OVCAR-3 was grown in RPMI 1640 Medium (ATCC modification) medium supplemented with 20% fetal bovine serum. The KLM-1” for “The KLM-1”
(In general: Cellular ATP, detected with luciferase, serves as a proxy for viable cell number.)

A further series addresses mesothelin protein (Homo sapiens, UniProt Q13421). Kind of series: Affinity measurements and kinetic analysis using BIAcore (SPR), mesothelin immobilised. Type of series: binding. The procedure: To know the biding kinetics difference among individual antibodies, surface plasmon resonance (SPR) measurement with a BIAcore T200 (Cytiva Inc.) was used as previously described (Karlsson & Falt, (1997) J. Immunol Methods 200:121-133). Carboxymethylated dextran biosensor chips (CM5, Cytiva Inc.) were activated with N-ethyl-N′-(3-dimethylaminopropyl)-carbodiimide hydrochloride (EDC) and N-hydroxysuccinimide (NHS) according to the supplier's instructions. Mesothelin protein was diluted with 10 mM sodium acetate, pH 4.0, into 5 μg/ml before injection at a flow rate of 10 μL/minute to achieve approximately 1500 response units (RU) of coupled protein followed by the injection of 1M ethanolamine to block unreacted groups. For kinetics measurements, two-fold serial dilutions of anti-mesothelin mAb (0.3125 nM to 40 nM) were injected in HBS-EP+ Biacore running buffer provided by the manufacturer (Cytiva Inc.) at 25 degree C. at a flow rate of 30 μL/min, and binding responses on the mesothelin protein were corrected by subtraction of responses on a blank flow cell. Association rates (kon or ka) and dissociation rates (koff or kd) were calculated using a simple one-to-one Langmuir binding model with separate fittings of kon and koff was used. (Cytiva.™. Biacore Insight Evaluation Software).
For orientation: In SPR one partner is held on a chip, and binding of the other changes the refractive index at the surface.

Series [3] deals with KLM-1 human pancreatic cancer xenograft. Kind of series: KLM-1 xenograft model (Example 45). The conditions noted are these: 15 mg/kg IV once weekly for 3 weeks. The protocol: Formulations respectively comprising test article DCBPR2002-4(DBCO-vc-MMAE)(15 mg/kg), test article DCBPR2002-4(DBCO-vc-seco-DUBA)(15 mg/kg), test article DCBPR2002-4(DBCO-s-DM1) (15 mg/kg), test article DCBPR2002-2(DBCO-vc-MMAE)-2(DBCO-vc-seco-DUBA) (15 mg/kg), test article DCBPR2002-2(DBCO-vc-MMAE)-2(DBCO-s-DM1) (15 mg/kg), test article DCBPR2002-2(DBCO-vc-seco-DUBA)-2(DBCO-s-DM1) (15 mg/kg), and a corresponding vehicle were formulated by diluting the stock with a 25 mM sodium citrate buffer (pH6.5). Each of the formulations was administered intravenously (IV) once weekly for three weeks.
The KLM-1 cells were maintained in vitro as a monolayer culture in RPMI-1640 medium supplemented with 10% fetal bovine serum at 37° C. in an atmosphere of 5% CO2 in air. The tumor cells were routinely sub-cultured twice weekly by trypsin-EDTA treatment. The cells growing in an exponential growth phase were harvested and counted for tumor inoculation.
Male NOD SCID mice at age of 6-7 weeks were purchased from BioLasco Taiwan Co., LTD. and quarantined for one week. Five mice were housed in each cage. All animals were hosted in the animal facility with a 12-h light/12-h dark cycle at 19-25° C. Animals had free access to rodent pellet foods and water ad libitum.
KLM-1 cells were subcutaneously (SC) implanted (4×10^6 cells in 1:1 PBS/matrigel mixture at 0.1 mL per mouse) into the right flank of male NOD SCID mice. When the average tumor volume had reached 300 mm^3, the mice were randomly divided into 7 groups (N=6 per group). Each of the vehicle, DCBPR2002-4(DBCO-vc-MMAE), DCBPR2002-4(DBCO-vc-seco-DUBA), DCBPR2002-4(DBCO-s-DM1), DCBPR2002-2(DBCO-vc-MMAE)-2(DBCO-vc-seco-DUBA), DCBPR2002-2(DBCO-vc-MMAE)-2(DBCO-s-DM1), DCBPR2002-2(DBCO-vc-seco-DUBA)-2(DBCO-s-DM1) was intravenously administered as 15 mg/kg once weekly for 3 weeks.
The tumor volumes, body weights, mortality, and signs of overt toxicity were monitored and recorded three times weekly for 28 days. Tumor volumes were measured three times per week using calipers and calculated according to the formula: Tumor Volume=(w2×l)/2, where w=width and l=length in diameter (mm) of the tumor. […] One-way ANOVA followed by Dunnett's test was applied for comparison between the vehicle and test article-treated groups. Differences are considered significant at *P<0.05. Animals were weighed three times weekly until the completion of the study.

The mark [4] stands for this setting: BIAcore T200, 25 degree C, 1:1 Langmuir model.

Chain of mesothelin protein (Q13421 with tags, fused parts or gaps): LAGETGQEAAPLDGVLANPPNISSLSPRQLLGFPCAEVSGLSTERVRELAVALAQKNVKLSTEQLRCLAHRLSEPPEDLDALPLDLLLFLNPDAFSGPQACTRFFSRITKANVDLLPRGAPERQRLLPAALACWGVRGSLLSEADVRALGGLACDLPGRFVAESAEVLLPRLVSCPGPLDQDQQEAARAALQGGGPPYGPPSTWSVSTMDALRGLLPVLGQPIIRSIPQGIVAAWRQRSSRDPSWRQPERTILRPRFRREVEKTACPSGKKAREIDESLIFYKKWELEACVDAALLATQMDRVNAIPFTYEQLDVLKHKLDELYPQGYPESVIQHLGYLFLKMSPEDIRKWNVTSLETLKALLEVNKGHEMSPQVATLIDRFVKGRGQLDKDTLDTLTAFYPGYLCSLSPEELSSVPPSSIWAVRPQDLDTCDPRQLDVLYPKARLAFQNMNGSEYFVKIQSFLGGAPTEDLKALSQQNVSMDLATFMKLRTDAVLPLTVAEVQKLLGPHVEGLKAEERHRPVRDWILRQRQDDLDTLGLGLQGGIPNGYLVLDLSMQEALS

On to `COc1cc2cc(c1Cl)N(C)C(=O)C[C@H](OC(=O)[C@H](C)N(C)C(=O)CCS)[C@]1(C)O[C@H]1[C@H](C)[C@@H]1C[C@@](O)(NC(=O)O1)[C@H](OC)/C=C/C=C(\C)C2` [DM1, reference compound], for which the IC50 came out at 1.6 nM in series [1] (OVCAR-3, 72 hours treatment) and 2.1 nM in series [2].
In the case of `CC[C@@]1(O)C(=O)OCc2c1cc1n(c2=O)Cc2c-1nc1cc(F)c(C)c3c1c2[C@@H](NC(=O)CO)CC3` [DXd, reference compound], in series [1] (OVCAR-3, 72 hours treatment), the IC50 is more than 100 nM.
As for `CC[C@@]1(O)C(=O)OCc2c1cc1n(c2=O)Cc2c-1nc1cc(F)c(C)c3c1c2[C@@H](N)CC3` [Exatecan, reference compound], in series [1] (Homo sapiens, OVCAR-3, 72 h), the IC50 worked out at 20.1 nM.
With `CC[C@H](C)[C@@H]([C@@H](CC(=O)N1CCC[C@H]1[C@H](OC)[C@@H](C)C(=O)N[C@H](C)[C@@H](O)c1ccccc1)OC)N(C)C(=O)[C@@H](NC(=O)[C@@H](NC)C(C)C)C(C)C` [MMAE, monomethyl auristatin E, reference compound] (H-[NMeV]V[Dil][Dolaproine]-X1), the IC50 came to 0.3 nM in series [1] (OVCAR-3, 72 hours treatment) and 0.3 nM in series [2].
As for “SS1: mouse anti-mesothelin antibody clone SS1, SEQ ID NOs: 7 and 8, of U.S. Pat. No. 7,081,518 B1; expressed as human Fc chimera [reference compound]”, the “Rmax(RU)” value in the series with mesothelin protein (BIAcore T200) came out at 218.2 RU. Also, in the series with mesothelin protein (setting [4]), the “ka” value was 3.415e+06 M⁻¹ s⁻¹ and the “kd” value was 1.194e-05 s⁻¹. For the same molecule, in the series with mesothelin protein (BIAcore T200, 25 degree C, 1:1 Langmuir model, listed as chimera SS1 mAb), the “kd” value was 1.194e-05 s⁻¹.

B1: DCBPR2002-2(DBCO-vc-seco-DUBA)-2(DBCO-s-DM1): dual-payload ADC: DCBPR2002-2(DBCO-vc-seco DUBA)-2Az reacted with DBCO-S-DM1; DAR ~4 (conjugate)
VH: QVQLVQSGAEVKKPGASVKVSCKASGYSFTGYTMNWVRQAPGQGLEWMGLITPYNGASSYNQKFRGRVTMTRDTSISTAYMELSRLRSDDTAVYYCARGGYDGRGFDYWGQGTLVTVSS
VL: EIVLTQSPATLSLSPGERATLSCSASSSVSYMHWYQQKPGQAPRLLIYDTSKLASGIPARFSGSGSGTDFTLTISSLEPEDFAVYYCQQWSKHPLTFGQGTKVEIKR
B1: the IC50 in series [1] (OVCAR-3, 72 hours treatment) is 36.3 nM; in series [2] it was 27 nM. Besides, the body weight changes entry in series [3] was “No body weight loss was observed”. Further, the “ranking of efficacy potency” value in series [3] is reported as “DCBPR2002-4(DBCO-vc-seco-DUBA)=DCBPR2002-2(DBCO-vc-MMAE)-2(DBCO-vc-seco-DUBA)=DCBPR2002-2(DBCO-vc-seco-DUBA)-2(DBCO-s-DM1)>DCBPR2002-4(DBCO-vc-MMAE)>DCBPR2002-2(DBCO-vc-MMAE)-2(DBCO-s-DM1)>DCBPR2002-4(DBCO-s-DM1)”.

B2: DCBPR2002-2(DBCO-vc-MMAE)-2(DBCO-s-DM1): dual-payload ADC: DCBPR2002-2(DBCO-vc-MMAE)-2Az reacted with DBCO-S-DM1; DAR ~4 (conjugate)
VH: QVQLVQSGAEVKKPGASVKVSCKASGYSFTGYTMNWVRQAPGQGLEWMGLITPYNGASSYNQKFRGRVTMTRDTSISTAYMELSRLRSDDTAVYYCARGGYDGRGFDYWGQGTLVTVSS
VL: EIVLTQSPATLSLSPGERATLSCSASSSVSYMHWYQQKPGQAPRLLIYDTSKLASGIPARFSGSGSGTDFTLTISSLEPEDFAVYYCQQWSKHPLTFGQGTKVEIKR
As to B2, the IC50 in series [1] (OVCAR-3, 72 hours treatment) is 4.6 nM; in series [2], 15.4 nM. For the same molecule, in series [3], the body weight changes entry is recorded as “No body weight loss was observed”. Further, the “ranking of efficacy potency” value in series [3] is listed as “DCBPR2002-4(DBCO-vc-seco-DUBA)=DCBPR2002-2(DBCO-vc-MMAE)-2(DBCO-vc-seco-DUBA)=DCBPR2002-2(DBCO-vc-seco-DUBA)-2(DBCO-s-DM1)>DCBPR2002-4(DBCO-vc-MMAE)>DCBPR2002-2(DBCO-vc-MMAE)-2(DBCO-s-DM1)>DCBPR2002-4(DBCO-s-DM1)”.

B3: DCBPR2002-4(DBCO-s-DM1) (conjugate)
VH: QVQLVQSGAEVKKPGASVKVSCKASGYSFTGYTMNWVRQAPGQGLEWMGLITPYNGASSYNQKFRGRVTMTRDTSISTAYMELSRLRSDDTAVYYCARGGYDGRGFDYWGQGTLVTVSS
VL: EIVLTQSPATLSLSPGERATLSCSASSSVSYMHWYQQKPGQAPRLLIYDTSKLASGIPARFSGSGSGTDFTLTISSLEPEDFAVYYCQQWSKHPLTFGQGTKVEIKR
Regarding B3, in series [1] (OVCAR-3, 72 hours treatment), the IC50 is 2.6 nM. Besides, the IC50 in series [2] came to 13.9 nM. In series [3], the body weight changes result was “No body weight loss was observed” and the “ranking of efficacy potency” value is on record as “DCBPR2002-4(DBCO-vc-seco-DUBA)=DCBPR2002-2(DBCO-vc-MMAE)-2(DBCO-vc-seco-DUBA)=DCBPR2002-2(DBCO-vc-seco-DUBA)-2(DBCO-s-DM1)>DCBPR2002-4(DBCO-vc-MMAE)>DCBPR2002-2(DBCO-vc-MMAE)-2(DBCO-s-DM1)>DCBPR2002-4(DBCO-s-DM1)”.
